The target in this experiment is T1, GST-14-3-3ζ (Drosophila melanogaster (Fruit fly), UniProt P29310).
T1 chain: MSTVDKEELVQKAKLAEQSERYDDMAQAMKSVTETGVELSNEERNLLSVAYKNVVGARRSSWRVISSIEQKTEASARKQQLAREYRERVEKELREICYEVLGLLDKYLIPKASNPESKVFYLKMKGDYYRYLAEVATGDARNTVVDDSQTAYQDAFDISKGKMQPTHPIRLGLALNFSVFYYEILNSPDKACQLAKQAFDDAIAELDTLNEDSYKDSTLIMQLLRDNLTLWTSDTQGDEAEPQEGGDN
The experiment can be described thus: GST pull-down.

B1: MBP-Tctp (protein)
chain: MKIYKDIITGDEMFADTYKMKLVDDVIYEVYGKLITRQGDDIKLEGANASAEEADEGTDITSESGVDVVLNHRLTECFAFGDKKSYTLYLKDYMKKVLAKLEEKSPDQVDIFKTNMNKAMKDILGRFKELQFFTGESMDCDGMVALVEYREINGDSVPVLMFFKHGLEEEKC
As to B1, the binding result was “binds”.

Values taken from publication PMC4859069 (2016).
